Assay results as given in patent publication US8455427B2, “Methods of modifying insulin signaling using biliverdin reductase” (University of Rochester, priority 2005, dated 2013).
Positions count from the first letter of the chain named. Values belong to the molecule of their own block, whether it stands above or below them.

Tests used:
[1] = target: T1, insulin receptor tyrosine kinase (IRK) (Homo sapiens, UniProt P06213); assay: BVR phosphorylation by the insulin receptor tyrosine kinase (IRK), in vitro [32P]-ATP assay; format: biochemical; settings: for decrease of BVR phosphorylation by IRK caused by point mutation / BVR phosphorylation by IRK (tyrosine mutants, in words): mutant vs wtBVR, IRK 2 h at 30° C.
T1 construct: the 48 kDa cytoplasmic domain of the β-subunit of IRK; purchased Biomol International (Plymouth, Pa.)
Procedure: BVR phosphoiylation by the insulin receptor tyrosine kinase (IRK): Phosphorylation of BVR by IRK was examined using GST-HBVR fusion protein and the 48 kDa cytoplasmic domain of the β-subunit of IRK. BVR (5 μg) was incubated in 50 μl of IRK kinase buffer containing 50 mM HEPES (pH 8.0), 20 mM MgCl2, 1 mM DTT in the presence of 0.05 μg IRK and 10 μM ATP labeled with 10 μCi [γ-^32P]-ATP. The reaction was started with the addition of labeled ATP and incubated for 2-4 h. Reactions were terminated by addition of Laemmli sample buffer and boiled for 3 min. Samples were subjected to 8% SDS-PAGE and transferred to PVDF membranes for autoradiography.

BVR in 293A cells [2] = assay: BVR tyrosine phosphorylation in insulin-treated 293A cells (immunoprecipitation and immunoblotting); format: cell-based, human; settings: within 8 min after insulin treatment
Procedure: (§1) Cell culture and transfection and infection of 293A: 293A cells were grown in 10 cm-plates with Dulbecco's Modified Eagle Medium (DMEM) (Invitrogen, Carlsbad, Calif.) containing 10% fetal bovine serum and 1% penicillin-G/streptomycin for 24 h or until a confluency of 70% was reached. Cells were subsequently transfected with 4 μg of pcDNA3 mutant BVR Y^198 using Transfectin Lipid Reagent (Bio-Rad, Hercules, Calif.), according to the manufacturer's procedure and incubated for 48 h at 37° C. In addition, non-transfected cells were infected with pSuper-Retro-siBVR for 24 h in the presence of 4 μg/ml polybrene. Cells were starved in serum-free DMEM 16 h prior to insulin treatment (50 nM).
Immunoprecipitation and immunoblotting: 293A Cells were plated in 10 cm plates and transfected with appropriate plasmids. Prior to collection, cells were washed twice with cold PBS and lysed in 300 μl cold modified RIPA buffer containing 50 mM Tris (pH7.4), 75 mM NaCl, 2 mM EDTA, 2 mM EGTA, 10 mM NaF, 1% Nonidet P-40, 0.5% sodium deoxycholate, 0.5% sodium vanadate, 1 mM PMSF, 10 μg/ml aprotinin, 1 mM benzamidine, 10 μg/ml leupeptine, and 10 μg/ml pepstatin. Cells sonicated (2×3 sec each) and centrifuged at 10,000×g for 15 min. Protein concentration was determined by Bradford assay (Bio-Rad, Hercules, Calif.). […]

BVR in 293A cells [3] = assay: BVR reductase activity in insulin-treated 293A cells; format: cell-based, human; settings: insulin 50 nM
Procedure: as §1
Measurement of BVR Reductase Activity: 293A cells treated with insulin were lysed in buffer containing a protease inhibitor cocktail and phosphatase inhibitors (10 mM NaF, […]). BVR activity was measured at pH 6.7 using NADH as the cofactor as described previously (Huang et al., J. Biol. Chem. 264:7844-9 (1989), which is hereby incorporated by reference in its entirety). The rate of conversion of biliverdin to bilirubin was determined as the increase in absorbance at 450 nm at 25° C. Specific activity is expressed as μmol of bilirubin/min/mg of protein.

human BVR [4] = target: T2, human BVR (Homo sapiens, UniProt P53004, A154S/E160D/G155D); assay: BVR kinase activity on substrates (IRS-1, IRS-1 peptides, Raytide, poly glu/tyr); format: biochemical; settings: peptide as substrate of BVR, [γ-32P]-ATP
T2 construct: made in house
T2 sequence (P53004 1-296 A154S/G155D/E160D): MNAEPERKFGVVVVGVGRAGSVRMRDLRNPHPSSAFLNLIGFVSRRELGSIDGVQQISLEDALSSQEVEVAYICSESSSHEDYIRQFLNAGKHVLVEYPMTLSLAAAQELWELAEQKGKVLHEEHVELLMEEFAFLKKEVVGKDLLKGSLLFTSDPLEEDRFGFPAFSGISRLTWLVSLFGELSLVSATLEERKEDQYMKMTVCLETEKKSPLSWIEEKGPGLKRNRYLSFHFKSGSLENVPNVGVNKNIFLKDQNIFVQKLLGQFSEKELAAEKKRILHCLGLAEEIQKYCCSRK
Procedure: (§2) BVR autophosphorylation and kinase activity: To detect autophosphorylation of BVR, GST-hBVR of wild type (wt) and mutant variants were incubated in 50 mM HEPES buffer (pH 8.4) in the presence of 30 mM MnCl2 and 1 mM DTT for 2 h at 30° C. The reaction was started with the addition of 10 μM ATP labeled with 10 μCi [γ-^32P]-ATP and was stopped with the addition of Laemmli sample buffer. Samples were boiled for 3 min and applied to a 8% SDS-PAGE gels, transferred to a PVDF membrane, and then visualized by autoradiography. To measure kinase activity, GST-BVR (5 μg) was incubated in 50 μl kinase buffer containing 50 mM HEPES buffer (pH 8.4), 20 mM MgCl2, 30 mM MnCl2, 1 mM DTT and 10 μM ATP labeled with 10 μCi [γ-^32P]-ATP in the presence of 5 μg substrates: IRS-1 or Raytide or poly glu/tyr (4:1) for 2 h at 30° C. The reaction was started with the addition of ATP and terminated by adding 120 μl 10% H3PO4. 100 μl aliquots were directly transferred to P81 Whatman filters which were subsequently washed extensively in 0.75% phosphoric acid at room temperature. Finally, the filters were submerged in acetone for 5 min, dried, and retained counts were measured using a Beckman LS 6500 liquid scintillation counter (Beckman Coulter, Fullerton, Calif.).

human BVR [5] = target: T2, human BVR; assay: BVR autophosphorylation; format: biochemical; settings: pH 8.4; 20 mM Zn acetate, also with Mn+2
Procedure: as §2

human BVR [6] = assay: BVR autophosphorylation; format: biochemical; settings: pH 8.4, 30 mM MnCl2, 2 h, 30° C.
Procedure: as §2

human BVR [7] = assay: BVR kinase activity on substrates (IRS-1, IRS-1 peptides, Raytide, poly glu/tyr); format: biochemical; settings: protein tested as kinase for IRS; Mn+2 and Mg+2 present
Procedure: as §2

T1 sequence (P06213 980-1382 limits assumed): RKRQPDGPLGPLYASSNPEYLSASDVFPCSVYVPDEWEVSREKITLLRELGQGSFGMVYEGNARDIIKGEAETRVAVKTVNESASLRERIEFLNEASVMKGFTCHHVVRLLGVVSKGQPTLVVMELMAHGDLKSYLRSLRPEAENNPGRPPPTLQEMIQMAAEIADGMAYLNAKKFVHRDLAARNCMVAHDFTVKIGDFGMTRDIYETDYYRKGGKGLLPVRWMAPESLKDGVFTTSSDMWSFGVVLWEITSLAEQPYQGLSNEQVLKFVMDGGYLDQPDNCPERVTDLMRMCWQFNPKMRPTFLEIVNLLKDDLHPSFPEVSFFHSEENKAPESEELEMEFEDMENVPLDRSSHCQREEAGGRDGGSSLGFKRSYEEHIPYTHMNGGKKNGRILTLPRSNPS

- effect on phosphorylation of BVR by IRK ([1]; 50 mM EDTA (pH 8.0), 30° C., 2 h, anti-phosphotyrosine blot): abolished phosphorylation of BVR by IRK
Molecule: O=C(O)CN(CCN(CC(=O)O)CC(=O)O)CC(=O)O [EDTA, reference compound]

Molecule: O=c1c(-c2ccc(O)cc2)coc2cc(O)cc(O)c12 [Genestein, reference compound]
- effect on BVR phosphorylation mediated by IRK ([1]; genestein 200 μM, HEPES pH 8.0, 20 mM MgCl2): significantly inhibited BVR phosphorylation mediated by IRK

Molecule: insulin: Human insulin purchased from Sigma-Aldrich
- BVR tyrosine phosphorylation (BVR in 293A cells [2]): dramatic increase in phosphorylation
- increase in BVR reductase activity (BVR in 293A cells [3]; 1 h after treatment): 2 fold
- BVR reductase activity, later time (BVR in 293A cells [3]; 6 h after treatment): gradually returned to basal level

- phosphorylation of IRS-1 peptide by BVR (human BVR [4]): 1198±230 cpm
Molecule: Arg-Thr-Glu-Ser^307-Ile-Thr-Ala-Thr-Ser^312-Pro-Ala-Ser^315-Met-Val-Gly-Gly-Lys-Pro (RTESITATSPASMVGGKP; peptide fragment of Homo sapiens Insulin Receptor Substrate (Peptide 2)) [IRS-1 peptide (#2), reference compound]

- phosphorylation of IRS-1 peptide by BVR (human BVR [4]): 1049±78 cpm
Molecule: Lys-Lys-His-Ala-Asp-Asp-Gly-Ala-Met-Pro-Met-Ser^312-Pro-Gly-Val-Ala (KKHADDGAMPMSPGVA; mutant peptide fragment of Homo sapiens Insulin Receptor Substrate (Peptide 1)) [mutant IRS-1 peptide (#1), reference compound]

- effect of metal ion on BVR autophosphorylation (human BVR [5]): inhibitory to BVR autophosphorylation
Molecule: CC(=O)[O-].CC(=O)[O-].[Zn+2] [Zn^+2, Zn acetate, reference compound]

- decrease of BVR phosphorylation by IRK caused by point mutation [1]: 40%
B1: Y^228: human BVR point mutant, NRYLS to NRFLS (protein, UniProt P53004 3-296, looked up, variant Y228F)
Biliverdin reductase A: AEPERKFGVVVVGVGRAGSVRMRDLRNPHPSSAFLNLIGFVSRRELGSIDGVQQISLEDALSSQEVEVAYICSESSSHEDYIRQFLNAGKHVLVEYPMTLSLAAAQELWELAEQKGKVLHEEHVELLMEEFAFLKKEVVGKDLLKGSLLFTAGPLEEERFGFPAFSGISRLTWLVSLFGELSLVSATLEERKEDQYMKMTVCLETEKKSPLSWIEEKGPGLKRNRFLSFHFKSGSLENVPNVGVNKNIFLKDQNIFVQKLLGQFSEKELAAEKKRILHCLGLAEEIQKYCCSRK
- autophosphorylation of BVR mutants (human BVR [6]): did not result in significant changes in autophosphorylation of BVR

- decrease of BVR phosphorylation by IRK caused by point mutation [1]: 49%
B2: Y^291: human BVR point mutant, QKYCC to QKFCC (protein, UniProt P53004 3-296, looked up, variant Y291F)
Biliverdin reductase A: B1 Biliverdin reductase A with F226Y, Y289F
- autophosphorylation of BVR mutants (human BVR [6]): did not result in significant changes in autophosphorylation of BVR

B3: Y^198 plus Y^291: human BVR double mutant, DQFMK and QKFCC (protein, UniProt P53004 3-296, looked up, variant Y198F Y291F)
Biliverdin reductase A: B1 Biliverdin reductase A with Y196F, F226Y, Y289F
- BVR phosphorylation by IRK (tyrosine mutants, in words) [1]: little or no phosphorylation was detected

B4: T^202: human BVR point mutant, KMTVC to KMAVC (protein, UniProt P53004 3-296, looked up, variant T202A)
Biliverdin reductase A: B1 Biliverdin reductase A with T200A, F226Y
- autophosphorylation of BVR mutants (human BVR [6]): found to be a target of autophosphorylation

B5: G^17: human BVR point mutant in ATP binding domain, GVGRA to GVARA (protein, UniProt P53004 3-296, looked up, variant G17A)
Biliverdin reductase A: B1 Biliverdin reductase A with G15A, F226Y
- IRS phosphorylation (human BVR [7]): for the most part, prevented IRS phosphorylation by BVR

B6: Y^198 plus Y^228: human BVR double mutant, DQFMK and NRFLS (protein, UniProt P53004 3-296, looked up, variant Y198F Y228F)
Biliverdin reductase A: B1 Biliverdin reductase A with Y196F
- BVR phosphorylation by IRK (tyrosine mutants, in words) [1]: little or no phosphorylation was detected

B7: HO-2: heme oxygenase isozyme, used as a control for kinase activity (protein, UniProt P30519 2-316, looked up)
Heme oxygenase 2: SAEVETSEGVDESEKKNSGALEKENQMRMADLSELLKEGTKEAHDRAENTQFVKDFLKGNIKKELFKLATTALYFTYSALEEEMERNKDHPAFAPLYFPMELHRKEALTKDMEYFFGENWEEQVQCPKAAQKYVERIHYIGQNEPELLVAHAYTRYMGDLSGGQVLKKVAQRALKLPSTGEGTQFYLFENVDNAQQFKQLYRARMNALDLNMKTKERIVEEANKAFEYNMQIFNELDQAGSTLARETLEDGFPVHDGKGDMRKCPFYAAEQDKGALEGSSCPFRTAMAVLRKPSLQFILAAGVALAAGLLAWYYM
- IRS phosphorylation (human BVR [7]): did not significantly effect IRS phosphorylation

B8: HO-1: heme oxygenase isozyme, used as a control for kinase activity (protein, UniProt P09601 1-288, looked up)
Heme oxygenase 1: MERPQPDSMPQDLSEALKEATKEVHTQAENAEFMRNFQKGQVTRDGFKLVMASLYHIYVALEEEIERNKESPVFAPVYFPEELHRKAALEQDLAFWYGPRWQEVIPYTPAMQRYVKRLHEVGRTEPELLVAHAYTRYLGDLSGGQVLKKIAQKALDLPSSGEGLAFFTFPNIASATKFKQLYRSRMNSLEMTPAVRQRVIEEAKTAFLLNIQLFEELQELLTHDTKDQSPSRAPGLRQRASNKVQDSAPVETPRGKPPLNTRSQAPLLRWVLTLSFLVATVAVGLYAM
- IRS phosphorylation (human BVR [7]): did not significantly effect IRS phosphorylation
